Data: PMC9368758, “Cellular Redox Metabolism Is Modulated by the Distinct Localization of Cyclic Nucleotide Phosphodiesterase 5A Isoforms” (International Journal of Molecular Sciences, 2022)
Several values for one entry are separate records, joined by “and”; a condition that tells them apart may be missing. Identical values can stand only once.

Tests used:
[1] = target: MmPDE5A2 (Mus musculus cGMP-specific phosphodiesterase 5A, isoform A2), produced in K. lactis CBS2359 transformed with p3XFlagPDE5A2 (Mus musculus); assay: native gel or EMSA; native PAGE, 5% non-denaturing gel, Tris/glycine pH 8.3, 4 C, 1.0 ug purified protein, Coomassie; pre-incubated at 30 C up to 3 h with or without DTT, cGMP, sildenafil or diamide
[2] = target: MmPDE5A2 (Mus musculus cGMP-specific phosphodiesterase 5A, isoform A2), produced in K. lactis CBS2359 transformed with p3XFlagPDE5A2 (Mus musculus); assay: SEC; purified protein (300 ug) on Superose 12 HR 10/30, 4 C, 0.20 mL/min, 20 mM HEPES pH 7.0, 1 mM EGTA, 5 mM beta-mercaptoethanol, 5 mM MgCl2, 100 mM NaCl, 2 mM PMSF, 0.05% Triton X-100; fractions tested for cGMP-hydrolysing activity and by native Western blot; column calibrated with MW markers
[3] = target: MmPDE5A2 produced in the K. lactis ragx1 mutant (Mus musculus); assay: native gel or EMSA; native PAGE, 5% non-denaturing gel, Tris/glycine pH 8.3, 4 C, 1.0 ug purified protein, Coomassie; pre-incubated at 30 C up to 3 h with or without DTT, cGMP, sildenafil or diamide
[4] = target: MmPDE5A3 (Mus musculus cGMP-specific phosphodiesterase 5A, isoform A3), produced in K. lactis wild type strain CBS2359 (Mus musculus); assay: as above
[5] = target: MmPDE5A3 (Mus musculus cGMP-specific phosphodiesterase 5A, isoform A3), produced in K. lactis wild type strain CBS2359 (Mus musculus); assay: SEC; purified protein (300 ug) on Superose 12 HR 10/30, 4 C, 0.20 mL/min, 20 mM HEPES pH 7.0, 1 mM EGTA, 5 mM beta-mercaptoethanol, 5 mM MgCl2, 100 mM NaCl, 2 mM PMSF, 0.05% Triton X-100; fractions tested for cGMP-hydrolysing activity and by native Western blot; column calibrated with MW markers
[6] = target: MmPDE5A3 produced in the K. lactis ragx1 mutant (Mus musculus); assay: native gel or EMSA; native PAGE, 5% non-denaturing gel, Tris/glycine pH 8.3, 4 C, 1.0 ug purified protein, Coomassie; pre-incubated at 30 C up to 3 h with or without DTT, cGMP, sildenafil or diamide
[7] = target: the molecule itself; assay: native gel or EMSA; native PAGE of K. lactis cell extracts with in-gel activity staining for G6PDH; cultures on various glucose concentrations, methylene blue, G418, ethanol; extracts also incubated overnight with NAD+ or NADP+

Molecule: MmPDE5A2 (Mus musculus cGMP-specific phosphodiesterase 5A, isoform A2), produced in K. lactis CBS2359 transformed with p3XFlagPDE5A2 (enzyme)
- stoichiometry N [1]: 2
- stoichiometry N [2]: 2

Molecule: MmPDE5A2 produced in the K. lactis ragx1 mutant (enzyme)
- stoichiometry N [3]: 2

Molecule: MmPDE5A3 (Mus musculus cGMP-specific phosphodiesterase 5A, isoform A3), produced in K. lactis wild type strain CBS2359 (enzyme)
- stoichiometry N [4]: 2
- stoichiometry N [5]: 2

Molecule: MmPDE5A3 produced in the K. lactis ragx1 mutant (enzyme)
- stoichiometry N [6]: 2

B1: Glc-6-phosphate dehydrogenase (G6PDH) of Kluyveromyces lactis (enzyme, K. lactis (endogenous in CBS2359), UniProt P48828 1-497, looked up)
chain: MATQFDENTVITIFGASGDLSKKKTFPALFGLYREGYLNPTTKIIGYARSKLSNEDLREKVKPFLKKPNGAKDDAKVNEFLSMVSYHAGPYDSDEGYLELKKIIEEFEAEKKVDEPHRLFYLALPPSIFIDVCSKLKENLYTESGIQRVIVEKPFGHDLQSATELQEKLAPLFSEDELFRIDHYLGKEMVKNLLLMRFGNTFLNAAWNKENIQSVQVVFKEPFGTEGRGGYFDSIGIIRDVMQNHLLQVLTLLTMERPVSFDPESVRDEKVKVLKAFSPIDHDDILIGQYGRSVDGSKPSYLDDETVKEDSKCVTFAAIGFKIANERWDGVPIVMRAGKALNEGKVEIRIQFRRVASGMFTDIPNNELVIRIQPNEAIYLKCNAKTPGLANENQTTELDLTYSERYKNYWIPEAYESLIRDALLGDHSNFVRDDELDVSWKLFTPLLNYLEGPDGPQPKIYPYGCRSPDGLVEFLADHGYTFSKPGSYQWPVTTPKM
notes: glucose-6-phosphate 1-dehydrogenase, Kluyveromyces lactis, endogenous enzyme seen by in-gel activity staining; Seen as a slow (tetramer) and a faster (dimer) band; also called glucose 6-phosphate dehydrogenase; source: endogenous, K. lactis cell extracts
- stoichiometry N [7]: 4 and 2
